In patent US20160161500A1, “METHOD OF SCREENING AN ANTIBODY” (SAMSUNG ELECTRONICS CO., LTD., priority 2014, published 2016):

B1: Anti-c-Met antibody A (antibody, human IgG2, kappa, V domains shown)
VH: EVQLVESGGGLVQPGGSLRLSCAASGFTFTDYYMSWVRQAPGKGLEWLGFIRNKANGYTTEYSASVKGRFTISRDNSKNTLYLQMNSLRAEDTAVYYCARDNWFAYWGQGTLVTVSS
VL: DIQMTQSPSSLSASVGDRVTITCKSSQSLLASGNQNNYLAWYQQKPGKAPKMLIIWASTRVSGVPSRFSGSGSGTDFTLTISSLQPEDFATYYCQQSYSRPYTFGQGTKVEIKR
notes: IgG2 antibody
B2: Anti-c-Met/anti-EGFR bispecific antibody A (bispecific antibody, human IgG2, kappa)
heavy: EVQLVESGGGLVQPGGSLRLSCAASGFTFTDYYMSWVRQAPGKGLEWLGFIRNKANGYTTEYSASVKGRFTISRDNSKNTLYLQMNSLRAEDTAVYYCARDNWFAYWGQGTLVTVSSASTKGPSVFPLAPCSRSTSESTAALGCLVKDYFPEPVTVSWNSGALTSGVHTFPAVLQSSGLYSLSSVVTVPSSNFGTQTYTCNVDHKPSNTKVDKTVERKCCVECPPCPAPPVAGPSVFLFPPKPKDTLMISRTPEVTCVVVDVSHEDPEVQFNWYVDGVEVHNAKTKPREEQFNSTFRVVSVLTVVHQDWLNGKEYKCKVSNKGLPAPIEKTISKTKGQPREPQVYTLPPSREEMTKNQVSLTCLVKGFYPSDIAVEWESNGQPENNYKTTPPMLDSDGSFFLYSKLTVDKSRWQQGNVFSCSVMHEALHNHYTQKSLSLSPGKGGGGSGGGGSEVQLLESGGGLVQPGGSLRLSCAASGFTFSNYDMSWVRQAPGKCLEWVSGISHSSGSKYYADSVKGRFTISRDNSKNTLYLQMNSLRAEDTAVYYCAKDATPRPLKPFDYWGQGTLVTVSSGGGGSGGGGSGGGGSQSVLTQPPSASGTPGQRVTISCTGSSSNIGNNDVSWYQQLPGTAPKLLIYDDNKRPSGVPDRFSGSKSGTSASLAISGLRSEDEADYYCGSWDASLNAYVFGCGTKLTVLG
light: DIQMTQSPSSLSASVGDRVTITCKSSQSLLASGNQNNYLAWYQQKPGKAPKMLIIWASTRVSGVPSRFSGSGSGTDFTLTISSLQPEDFATYYCQQSYSRPYTFGQGTKVEIKRTVAAPSVFIFPPSDEQLKSGTASVVCLLNNFYPREAKVQWKVDNALQSGNSQESVTEQDSKDSTYSLSSTLTLSKADYEKHKVYACEVTHQGLSSPVTKSFNRGEC
notes: Anti-c-Met antibody A (IgG2) with an anti-EGFR scFv (VH-linker-VL) linked to the C-terminus of its Fc; also called c-Met bispecific antibody A

Target: T1, c-Met on EBC-1 cells (UniProt P08581 25-1390, limits assumed)
T1 construct: whole, on cells; EBC-1 is a human lung cancer line; also called c-Met on the cell surface
Experiment: flow cytometry on EBC-1 cells; antibody bound at pH 7.4, cells fixed, then buffers of pH 1.5 to 7.4
Experimental: In order to examine the degree of influence of pH conditions on the binding of anti-c-Met antibody and c-Met, the antibody was reacted with c-Met to form a binding therebetween, and then, treated with buffer with various pH to change the pH conditions, and then, the amount of the antibody which maintain the binding to the antigen (c-Met) at a certain pH was measured.
In particular, EBC-1 cells (ATCC) were counted and seeded in e-tubes at the amount of about 3×10⁵ cells per tube. As a medium, RPMI-1640 (Gibco) was employed. The cell culture was washed with phosphate buffer saline (PBS; pH 7.4) to remove the medium, and treated with each of c-Met antibodies A, B, and C, and c-Met bispecific antibody A, provided in Example 1, at the amount of 1 μg/ml per a tube, and then, kept in ice for 30 minutes. The obtained cells were treated with 4% formaldehyde for 10 minutes to be fixed. After washing with PBS(pH7.4), the cells treated with FACS buffer with various pH (0.2%(v/v) FBS (Fetal bovine serum) in PBS, pH 1.5, 2.0, 2.5, 3.0, 4.0, 5.0, 6.0, or 7.4) and kept in ice for 5 minutes. […] The c-Met antibody attached to cell surface was quantified by Flow cytometry (BD, FACS Cantoll).

T1 sequence (P08581 25-1390 limits assumed): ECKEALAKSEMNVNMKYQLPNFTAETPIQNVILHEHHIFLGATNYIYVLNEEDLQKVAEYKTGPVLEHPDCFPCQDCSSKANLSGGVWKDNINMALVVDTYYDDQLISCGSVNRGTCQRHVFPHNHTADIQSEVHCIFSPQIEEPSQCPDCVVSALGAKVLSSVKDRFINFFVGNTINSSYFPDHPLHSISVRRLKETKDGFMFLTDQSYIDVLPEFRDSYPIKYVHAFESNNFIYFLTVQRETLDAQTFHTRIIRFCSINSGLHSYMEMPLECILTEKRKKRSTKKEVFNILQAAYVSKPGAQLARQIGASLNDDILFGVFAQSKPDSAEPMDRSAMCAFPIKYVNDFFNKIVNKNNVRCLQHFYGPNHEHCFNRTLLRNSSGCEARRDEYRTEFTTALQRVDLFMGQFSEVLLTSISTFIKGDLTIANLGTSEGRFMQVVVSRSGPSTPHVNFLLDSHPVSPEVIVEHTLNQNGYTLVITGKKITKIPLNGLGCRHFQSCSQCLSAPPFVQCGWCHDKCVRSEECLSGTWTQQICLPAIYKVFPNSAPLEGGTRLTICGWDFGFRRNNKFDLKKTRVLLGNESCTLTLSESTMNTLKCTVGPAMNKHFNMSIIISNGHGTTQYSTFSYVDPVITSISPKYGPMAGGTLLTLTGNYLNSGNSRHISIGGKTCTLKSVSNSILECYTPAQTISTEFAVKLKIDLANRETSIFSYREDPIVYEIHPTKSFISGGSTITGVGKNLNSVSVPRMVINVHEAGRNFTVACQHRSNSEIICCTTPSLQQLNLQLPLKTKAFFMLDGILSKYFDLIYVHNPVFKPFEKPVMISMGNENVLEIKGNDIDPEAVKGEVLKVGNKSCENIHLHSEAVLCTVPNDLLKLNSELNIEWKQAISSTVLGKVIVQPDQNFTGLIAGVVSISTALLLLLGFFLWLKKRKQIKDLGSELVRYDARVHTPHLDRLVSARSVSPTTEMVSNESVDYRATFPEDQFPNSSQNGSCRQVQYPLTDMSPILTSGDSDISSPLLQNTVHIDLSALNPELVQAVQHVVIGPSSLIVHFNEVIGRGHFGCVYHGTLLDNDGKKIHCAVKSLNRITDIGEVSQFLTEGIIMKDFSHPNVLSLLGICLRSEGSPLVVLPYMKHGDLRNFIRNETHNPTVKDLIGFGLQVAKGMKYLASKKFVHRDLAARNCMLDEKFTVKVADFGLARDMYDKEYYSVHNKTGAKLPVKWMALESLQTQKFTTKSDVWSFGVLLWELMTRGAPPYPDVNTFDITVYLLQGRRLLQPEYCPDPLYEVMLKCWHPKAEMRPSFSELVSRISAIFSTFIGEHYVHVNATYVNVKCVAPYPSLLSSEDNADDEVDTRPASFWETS

Binder | binding result
B1 | binds
B2 | binds
